Earlier results in article PMC3079778.

Tests used:
[1] = target: CYP1A2 (Oryctolagus cuniculus) (UniProt P00187); test: FRET
[2] = target: CYP2B4 (Oryctolagus cuniculus) (UniProt P00178); test: FRET
Sequence of UniProt P00178 (P00178 whole entry): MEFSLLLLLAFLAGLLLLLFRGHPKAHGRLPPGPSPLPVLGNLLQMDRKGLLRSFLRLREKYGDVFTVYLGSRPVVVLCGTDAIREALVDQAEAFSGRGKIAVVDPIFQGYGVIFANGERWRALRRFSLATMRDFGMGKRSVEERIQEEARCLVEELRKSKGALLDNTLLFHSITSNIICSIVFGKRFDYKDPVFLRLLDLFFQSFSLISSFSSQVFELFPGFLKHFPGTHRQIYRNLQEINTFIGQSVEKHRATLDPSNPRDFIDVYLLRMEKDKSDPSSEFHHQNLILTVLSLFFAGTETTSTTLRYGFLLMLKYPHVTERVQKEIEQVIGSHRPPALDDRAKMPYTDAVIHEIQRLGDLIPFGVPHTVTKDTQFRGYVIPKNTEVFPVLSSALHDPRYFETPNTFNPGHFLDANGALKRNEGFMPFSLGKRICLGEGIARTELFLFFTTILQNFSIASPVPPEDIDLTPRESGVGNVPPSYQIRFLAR

Sequence of UniProt P00187 (P00187 2-516): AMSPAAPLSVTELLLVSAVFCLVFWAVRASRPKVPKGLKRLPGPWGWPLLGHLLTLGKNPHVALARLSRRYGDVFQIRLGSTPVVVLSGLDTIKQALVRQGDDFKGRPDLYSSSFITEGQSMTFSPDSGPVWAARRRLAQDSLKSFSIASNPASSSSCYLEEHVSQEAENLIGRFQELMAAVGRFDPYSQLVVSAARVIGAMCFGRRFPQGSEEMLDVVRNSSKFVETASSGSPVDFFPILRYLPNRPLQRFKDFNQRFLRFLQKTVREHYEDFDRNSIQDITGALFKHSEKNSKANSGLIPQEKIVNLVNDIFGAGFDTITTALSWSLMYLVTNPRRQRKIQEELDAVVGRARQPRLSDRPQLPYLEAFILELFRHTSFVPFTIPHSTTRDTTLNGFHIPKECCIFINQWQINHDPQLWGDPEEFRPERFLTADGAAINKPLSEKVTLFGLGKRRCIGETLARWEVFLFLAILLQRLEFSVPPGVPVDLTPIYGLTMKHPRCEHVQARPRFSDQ

Substance: CPR (from UniProt P00389)
- Kd [1]: 40 nM
- Kd [2]: 40 nM
